# Measurements taken from PMC7867188, “Biosensor-Based Directed Evolution of Methanol Dehydrogenase from Lysinibacillus xylanilyticus” (International Journal of Molecular Sciences, 2021).
# Substrate: CO
# Experiment: HPLC of formaldehyde after O-benzylhydroxylamine derivatization; Michaelis-Menten nonlinear fit
# Assay type: biochemical, Lysinibacillus xylanilyticus
# Conditions: 3 mM NAD+, 5 mM Mg2+, 50 mM CHES pH 9.5, 55 °C, 10 min, 0-5 mM methanol
# Excerpt: HPLC of formaldehyde after O-benzylhydroxylamine derivatization; Michaelis-Menten nonlinear fit on Lxmdh (methanol dehydrogenase, Mdh, NAD-dependent)
protein,measurement,value
"Lxmdh (methanol dehydrogenase, Mdh, NAD-dependent) (Lysinibacillus xylanilyticus) (protein, His-tagged (pET28a; cloning primers indicate N-terminal His/thrombin tag and native stop), expressed in E. coli, Ni-NTA purified; cloning primers encode N-terminus MSDVLK and C-terminus KAVALS) MSDVLKQFVMPKTNLFGPGAIQEVGTRLNDLEVKKTLIVTDEGLHKLGLSEQIANIITAAGIDVAIFPKAEPNPTDQNIEDGIAVYHAENCDSIVSLGGGSAHDAAKGIGLIASNGGRIHDYEGVDKSQNPLVPLIAINTTAGTASEMTRFTIITDTARKVKMAIVDKHVTPLLSINDPELMIGLPPALTAATGLDALTHAIESFVSTNATPITDACAEKVLQLVPEYLPRAYANGADLEAREQMVYAQFLAGMAFNNASLGYVHAIAHQLGGFYNLPHGVCNAILLPHVCRFNLTARTERFARIAELLGENVEALSKRDAAEKAIVAIENLSRDLNIPSGFRELGAKDEDIEILAKNAMLDVCAATNPRKATLEEIKQIITNAMGPVAKKEESLEAVALS",Km,1311 ± 406 µM
same,kcat,0.0333 ± 0.00333 s⁻¹
"Lxmdh (methanol dehydrogenase, Mdh, NAD-dependent) (Lysinibacillus xylanilyticus; K318N) (protein, His-tagged (pET28a; cloning primers indicate N-terminal His/thrombin tag and native stop), expressed in E. coli, Ni-NTA purified; cloning primers encode N-terminus MSDVLK and C-terminus KAVALS) MSDVLKQFVMPKTNLFGPGAIQEVGTRLNDLEVKKTLIVTDEGLHKLGLSEQIANIITAAGIDVAIFPKAEPNPTDQNIEDGIAVYHAENCDSIVSLGGGSAHDAAKGIGLIASNGGRIHDYEGVDKSQNPLVPLIAINTTAGTASEMTRFTIITDTARKVKMAIVDKHVTPLLSINDPELMIGLPPALTAATGLDALTHAIESFVSTNATPITDACAEKVLQLVPEYLPRAYANGADLEAREQMVYAQFLAGMAFNNASLGYVHAIAHQLGGFYNLPHGVCNAILLPHVCRFNLTARTERFARIAELLGENVEALSNRDAAEKAIVAIENLSRDLNIPSGFRELGAKDEDIEILAKNAMLDVCAATNPRKATLEEIKQIITNAMGPVAKKEESLEAVALS",Km,46 ± 72 µM
same,kcat,0.0267 ± 0.005 s⁻¹
"Lxmdh (methanol dehydrogenase, Mdh, NAD-dependent) (Lysinibacillus xylanilyticus; K46E) (protein, His-tagged (pET28a; cloning primers indicate N-terminal His/thrombin tag and native stop), expressed in E. coli, Ni-NTA purified; cloning primers encode N-terminus MSDVLK and C-terminus KAVALS) MSDVLKQFVMPKTNLFGPGAIQEVGTRLNDLEVKKTLIVTDEGLHELGLSEQIANIITAAGIDVAIFPKAEPNPTDQNIEDGIAVYHAENCDSIVSLGGGSAHDAAKGIGLIASNGGRIHDYEGVDKSQNPLVPLIAINTTAGTASEMTRFTIITDTARKVKMAIVDKHVTPLLSINDPELMIGLPPALTAATGLDALTHAIESFVSTNATPITDACAEKVLQLVPEYLPRAYANGADLEAREQMVYAQFLAGMAFNNASLGYVHAIAHQLGGFYNLPHGVCNAILLPHVCRFNLTARTERFARIAELLGENVEALSKRDAAEKAIVAIENLSRDLNIPSGFRELGAKDEDIEILAKNAMLDVCAATNPRKATLEEIKQIITNAMGPVAKKEESLEAVALS",Km,372 ± 231 µM
same,kcat,0.0283 ± 0.00333 s⁻¹
"Lxmdh (methanol dehydrogenase, Mdh, NAD-dependent) (Lysinibacillus xylanilyticus; E396V/K318N) (protein, His-tagged (pET28a; cloning primers indicate N-terminal His/thrombin tag and native stop), expressed in E. coli, Ni-NTA purified; cloning primers encode N-terminus MSDVLK and C-terminus KAVALS) MSDVLKQFVMPKTNLFGPGAIQEVGTRLNDLEVKKTLIVTDEGLHKLGLSEQIANIITAAGIDVAIFPKAEPNPTDQNIEDGIAVYHAENCDSIVSLGGGSAHDAAKGIGLIASNGGRIHDYEGVDKSQNPLVPLIAINTTAGTASEMTRFTIITDTARKVKMAIVDKHVTPLLSINDPELMIGLPPALTAATGLDALTHAIESFVSTNATPITDACAEKVLQLVPEYLPRAYANGADLEAREQMVYAQFLAGMAFNNASLGYVHAIAHQLGGFYNLPHGVCNAILLPHVCRFNLTARTERFARIAELLGENVEALSNRDAAEKAIVAIENLSRDLNIPSGFRELGAKDEDIEILAKNAMLDVCAATNPRKATLEEIKQIITNAMGPVAKKEESLVAVALS",Km,233 ± 107 µM
same,kcat,0.0217 ± 0.00167 s⁻¹
"Lxmdh (methanol dehydrogenase, Mdh, NAD-dependent) (Lysinibacillus xylanilyticus; E396V) (protein, His-tagged (pET28a; cloning primers indicate N-terminal His/thrombin tag and native stop), expressed in E. coli, Ni-NTA purified; cloning primers encode N-terminus MSDVLK and C-terminus KAVALS) MSDVLKQFVMPKTNLFGPGAIQEVGTRLNDLEVKKTLIVTDEGLHKLGLSEQIANIITAAGIDVAIFPKAEPNPTDQNIEDGIAVYHAENCDSIVSLGGGSAHDAAKGIGLIASNGGRIHDYEGVDKSQNPLVPLIAINTTAGTASEMTRFTIITDTARKVKMAIVDKHVTPLLSINDPELMIGLPPALTAATGLDALTHAIESFVSTNATPITDACAEKVLQLVPEYLPRAYANGADLEAREQMVYAQFLAGMAFNNASLGYVHAIAHQLGGFYNLPHGVCNAILLPHVCRFNLTARTERFARIAELLGENVEALSKRDAAEKAIVAIENLSRDLNIPSGFRELGAKDEDIEILAKNAMLDVCAATNPRKATLEEIKQIITNAMGPVAKKEESLVAVALS",Km,10 ± 3 µM
same,kcat,0.02 ± 0.00167 s⁻¹
